Target: T1, GST-β-catenin (GST-β-cat (aa1–781)) (UniProt P35222 1-781)
T1 construct: β-catenin aa1–781; the cDNA may be mouse (surmise); source: E. coli XL1 blue or BL21-RE4, purified (glutathione-agarose)
T1 sequence (looked up): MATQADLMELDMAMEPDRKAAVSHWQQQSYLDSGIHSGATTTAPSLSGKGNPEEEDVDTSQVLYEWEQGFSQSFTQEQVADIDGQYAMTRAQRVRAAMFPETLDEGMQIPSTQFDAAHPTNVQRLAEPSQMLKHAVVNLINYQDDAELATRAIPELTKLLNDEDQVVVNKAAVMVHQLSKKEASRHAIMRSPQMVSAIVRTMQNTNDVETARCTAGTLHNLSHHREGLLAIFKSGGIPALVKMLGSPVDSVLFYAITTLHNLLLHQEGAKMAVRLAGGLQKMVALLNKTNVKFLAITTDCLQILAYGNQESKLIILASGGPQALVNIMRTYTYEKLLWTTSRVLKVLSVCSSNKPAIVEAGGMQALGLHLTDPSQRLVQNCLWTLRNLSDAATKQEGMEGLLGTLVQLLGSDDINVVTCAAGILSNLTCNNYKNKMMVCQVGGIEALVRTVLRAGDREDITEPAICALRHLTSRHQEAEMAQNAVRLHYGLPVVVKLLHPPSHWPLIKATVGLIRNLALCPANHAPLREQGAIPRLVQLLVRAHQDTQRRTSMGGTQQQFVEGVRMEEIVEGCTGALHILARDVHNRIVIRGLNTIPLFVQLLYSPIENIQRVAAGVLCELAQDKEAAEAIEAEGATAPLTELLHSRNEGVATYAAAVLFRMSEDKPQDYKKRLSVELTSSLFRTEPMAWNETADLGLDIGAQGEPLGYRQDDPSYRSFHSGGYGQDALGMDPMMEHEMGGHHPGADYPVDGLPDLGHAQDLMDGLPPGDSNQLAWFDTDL
Assay: pull-down; 4 μg GST or GST fusion protein with 5 μg MBP fusion protein, 150 mM NaCl, 20 mM imidazole or HEPES pH 8.0, 2 mM MgCl2, 300 mM sucrose, 0.25% Triton X-100, 20 min at 4 °C; glutathione-agarose beads; western blot with anti-MBP
Details: both partners purified

B1: MBP-dNitFhit (natural protein, D. melanogaster, UniProt O76464 1-460, looked up)
chain: MSTLVNTTRRSIVIAIHQQLRRMSVQKRKDQSATIAVGQMRSTSDKAANLSQVIELVDRAKSQNACMLFLPECCDFVGESRTQTIELSEGLDGELMAQYRELAKCNKIWISLGGVHERNDQKIFNAHVLLNEKGELAAVYRKLHMFDVTTKEVRLRESDTVTPGYCLERPVSTPVGQIGLQICYDLRFAEPAVLLRKLGANLLTYPSAFTYATGKAHWEILLRARAIETQCFVVAAAQIGWHNQKRQSWGHSMIVSPWGNVLADCSEQELDIGTAEVDLSVLQSLYQTMPCFEHRRNDIYALTAYNLRSKEPTQDRPFATNIVDKRTIFYESEHCFAFTNLRCVVKGHVLVSTKRVTPRLCGLDCAEMADMFTTVCLVQRLLEKIYQTTSATVTVQDGAQAGQTVPHVHFHIMPRRLGDFGHNDQIYVKLDERAEEKPPRTIEERIEEAQIYRKFLTDIS
notes: Drosophila melanogaster NitFhit, amplified from the intronless genomic DNA; source: E. coli XL1 blue or BL21-RE4, purified (amylose resin)
binding result: binds
